According to patent US20230212319A1, “NOVEL ANTIGEN BINDING DOMAINS AND SYNTHETIC ANTIGEN RECEPTORS INCORPORATING THE SAME” (University of Southern California, priority 2020, published 2023):

B1: 22286 (protein)
chain: MALPVTALLLPLALLLHAARPACLFNQEVQIPLTESYCGPCPKNWICYKNNCYQFFDESKNWYESQASCMSQNASLLKVYSKEDQDLLKLVKSAHWMGLVHIPTNGSWQWEDGSILSPNLLTIIEMQKGDCALYASSFKGYIENCSTPNTYICMQRTVLEGQPKANPTVTLFPPSSEELQANKATLVCLISDFYPGAVTVAWKADGSPVKAGVETTKPSKQSNNKYAASSYLSLTPEQWKSHRSYSCQVTHEGSTVEKTVAPTECSPIKTDVITMDPKDNCSKDANDTLLLQLTNTSAYYMYLLLLLKSVVYFAIITCCLLRRTAFCCNGEKSRAKRSGSGATNFSLLKQAGDVEENPGPTSATMDWIWRILFLVGAATGAHSGPQVQLQESGGGLAQAGGSLRLSCAASGRTFSMGWFRQAPGKEREFVAAITYSGGSPYYASSVRGRFTISRDNAKNTVYLQMNSLKPEDTAVYYCAANPTYGSDWNAENWGQGTQVTVSSGSGGGGSGGGGSGGGGSFEQVQLQQPGAELVKPGASVKMSCKASGYAFSSYWINWMKQKPGQGLEWIGQIYPGDGDTNYNGKFKGRATLTADTSSSTAYMQLSSLTSEDSAVYFCARSITTVVGCAMDYWGQGTSVTVSSTRASTKGPSVFPLAPSSKSTSGGTAALGCLVKDYFPEPVTVSWNSGALTSGVHTFPAVLQSSGLYSLSSVVTVPSSSLGTQTYICNVNHKPSNTKVDKRVEPKSCEVKTDSTDHVKPKETENTKQPSKSCHKPKAIVHTEKVNMMSLTVLGLRMLFAKTVAVNFLLTAKLFFLRAKRSGSGVKQTLNFDLLKLAGDVESNPGPSRGHMTEYKPTVRLATRDDVPRAVRTLAAAFADYPATRHTVDPDRHIERVTELQELFLTRVGLDIGKVWVADDGAAVAVWTTPESVEAGAVFAEIGPRMAELSGSRLAAQQQMEGLLAPHRPKEPAWFLATVGVSPDHQGKGLGSAVVLPGVEAAERAGVPAFLETSAPRNLPFYERLGFTVTADVEVPEGPRTWCMTRKPGA
B2: 22043 (protein)
chain: MALPVTALLLPLALLLHAARPQLQLQESGPGLVKPSETLSLTCTVSGDSISSGDYYWGWIRQPPGKGLEWIGHIYYSGVTYYNPSLKSRVTISVDTSRNQFSLKLSSVTAADTAVYYCTREDSSNWRSRGQGTLVTVSSLEDKTHTCPPCPAPIKTDVITMDPKDNCSKDANDTLLLQLTNTSAYYMYLLLLLKSVVYFAIITCCLLRRTAFCCNGEKSRAKRSGSGATNFSLLKQAGDVEENPGPTSMDWIWRILFLVGAATGAHSFEVQLVESGGGVVQPGRSLRLSCAASGFSFSGYGMHWVRQAPGKGLEWVAYISYDGSNKYYADSVKGRFTISRDNSKNTLYLQMNSLRAEDTAVYYCAKDPAWGLRLGESSSYDFDIWGQGTMVTVSSTRDKTHTCPPCPAIPEDTFFPSPESSCDVKLVEKSFETDTNLNFQNLSVIGFRILLLKVAGFNLLMTLRLWSSRAKRSGSGVKQTLNFDLLKLAGDVESNPGPSRGHMTEYKPTVRLATRDDVPRAVRTLAAAFADYPATRHTVDPDRHIERVTELQELFLTRVGLDIGKVWVADDGAAVAVWTTPESVEAGAVFAEIGPRMAELSGSRLAAQQQMEGLLAPHRPKEPAWFLATVGVSPDHQGKGLGSAVVLPGVEAAERAGVPAFLETSAPRNLPFYERLGFTVTADVEVPEGPRTWCMTRKPGA
B3: SEQ ID NO: 22288: SAR with adaptor binding domain (Table 48) (protein)
chain: MALPVTALLLPLALLLHAARPACLFNQEVQIPLTESYCGPCPKNWICYKNNCYQFFDESKNWYESQASCMSQNASLLKVYSKEDQDLLKLVKSAHWMGLVHIPTNGSWQWEDGSILSPNLLTIIEMQKGDCALYASSFKGYIENCSTPNTYICMQRTVLEGQPKANPTVTLFPPSSEELQANKATLVCLISDFYPGAVTVAWKADGSPVKAGVETTKPSKQSNNKYAASSYLSLTPEQWKSHRSYSCQVTHEGSTVEKTVAPTECSPIKTDVITMDPKDNCSKDANDTLLLQLTNTSAYYMYLLLLLKSVVYFAIITCCLLRRTAFCCNGEKSRAKRSGSGATNFSLLKQAGDVEENPGPTSATMDWIWRILFLVGAATGAHSGPQVQLQESGGGLAQAGGSLRLSCAASGRTFSMGWFRQAPGKEREFVAAITYSGGSPYYASSVRGRFTISRDNAKNTVYLQMNSLKPEDTAVYYCAANPTYGSDWNAENWGQGTQVTVSSGSGGGGSGGGGSGGGGSFEDLFNQEVQIPLTESYCGPCPKNWICYKNNCYQFFDESKNWYESQASCMSQNASLLKVYSKEDQDLLKLVKSAHWMGLVHIPTNGSWQWEDGSILSPNLLTIIEMQKGDCALYASSFKGFIENCSTPNTYICMQRTVTRASTKGPSVFPLAPSSKSTSGGTAALGCLVKDYFPEPVTVSWNSGALTSGVHTFPAVLQSSGLYSLSSVVTVPSSSLGTQTYICNVNHKPSNTKVDKRVEPKSCEVKTDSTDHVKPKETENTKQPSKSCHKPKAIVHTEKVNMMSLTVLGLRMLFAKTVAVNFLLTAKLFFLRAKRSGSGVKQTLNFDLLKLAGDVESNPGPSRGHMTEYKPTVRLATRDDVPRAVRTLAAAFADYPATRHTVDPDRHIERVTELQELFLTRVGLDIGKVWVADDGAAVAVWTTPESVEAGAVFAEIGPRMAELSGSRLAAQQQMEGLLAPHRPKEPAWFLATVGVSPDHQGKGLGSAVVLPGVEAAERAGVPAFLETSAPRNLPFYERLGFTVTADVEVPEGPRTWCMTRKPGA
B4: 22057 (protein)
chain: MALPVTALLLPLALLLHAARPQLQLQESGPGLVKPSETLSLTCTVSGDSISSGDYYWGWIRQPPGKGLEWIGHIYYSGVTYYNPSLKSRVTISVDTSRNQFSLKLSSVTAADTAVYYCTREDSSNWRSRGQGTLVTVSSLEGSEVKTDSTDHVKPKETENTKQPSKSCHKPKAIVHTEKVNMMSLTVLGLRMLFAKTVAVNFLLTAKLFFLRAKRSGSGVKQTLNFDLLKLAGDVESNPGPTSMDWIWRILFLVGAATGAHSFEVQLVESGGGVVQPGRSLRLSCAASGFSFSGYGMHWVRQAPGKGLEWVAYISYDGSNKYYADSVKGRFTISRDNSKNTLYLQMNSLRAEDTAVYYCAKDPAWGLRLGESSSYDFDIWGQGTMVTVSSTRDKTHTCPPCPAGRADCGFTSESYQQGVLSATILYEILLGKATLYAVLVSALVLMAMVKRKDFRAKRSGSGATNFSLLKQAGDVEENPGPSRGHMTEYKPTVRLATRDDVPRAVRTLAAAFADYPATRHTVDPDRHIERVTELQELFLTRVGLDIGKVWVADDGAAVAVWTTPESVEAGAVFAEIGPRMAELSGSRLAAQQQMEGLLAPHRPKEPAWFLATVGVSPDHQGKGLGSAVVLPGVEAAERAGVPAFLETSAPRNLPFYERLGFTVTADVEVPEGPRTWCMTRKPGA
B5: 22055 (protein)
chain: MALPVTALLLPLALLLHAARPQLQLQESGPGLVKPSETLSLTCTVSGDSISSGDYYWGWIRQPPGKGLEWIGHIYYSGVTYYNPSLKSRVTISVDTSRNQFSLKLSSVTAADTAVYYCTREDSSNWRSRGQGTLVTVSSLEGSEVKTDSTDHVKPKETENTKQPSKSCHKPKAIVHTEKVNMMSLTVLGLRMLFAKTVAVNFLLTAKLFFLRAKRSGSGVKQTLNFDLLKLAGDVESNPGPTSMDWIWRILFLVGAATGAHSFEVQLVESGGGVVQPGRSLRLSCAASGFSFSGYGMHWVRQAPGKGLEWVAYISYDGSNKYYADSVKGRFTISRDNSKNTLYLQMNSLRAEDTAVYYCAKDPAWGLRLGESSSYDFDIWGQGTMVTVSSTRGSGRADCGFTSESYQQGVLSATILYEILLGKATLYAVLVSALVLMAMVKRKDSRGRAKRSGSGATNFSLLKQAGDVEENPGPSRGHMTEYKPTVRLATRDDVPRAVRTLAAAFADYPATRHTVDPDRHIERVTELQELFLTRVGLDIGKVWVADDGAAVAVWTTPESVEAGAVFAEIGPRMAELSGSRLAAQQQMEGLLAPHRPKEPAWFLATVGVSPDHQGKGLGSAVVLPGVEAAERAGVPAFLETSAPRNLPFYERLGFTVTADVEVPEGPRTWCMTRKPGA
B6: 22058 (protein)
chain: MALPVTALLLPLALLLHAARPQLQLQESGPGLVKPSETLSLTCTVSGDSISSGDYYWGWIRQPPGKGLEWIGHIYYSGVTYYNPSLKSRVTISVDTSRNQFSLKLSSVTAADTAVYYCTREDSSNWRSRGQGTLVTVSSLEDLKNVFPPEVAVFEPSEAEISHTQKATLVCLATGFYPDHVELSWWVNGKEVHSGVCTDPQPLKEQPALNDSRYCLSSRLRVSATFWQNPRNHFRCQVQFYGLSENDEWTQDRAKPVTQIVSAEAWGRADCGFTSESYQQGVLSATILYEILLGKATLYAVLVSALVLMAMVKRKDSRGRAKRSGSGATNFSLLKQAGDVEENPGPTSMDWIWRILFLVGAATGAHSFEVQLVESGGGVVQPGRSLRLSCAASGFSFSGYGMHWVRQAPGKGLEWVAYISYDGSNKYYADSVKGRFTISRDNSKNTLYLQMNSLRAEDTAVYYCAKDPAWGLRLGESSSYDFDIWGQGTMVTVSSTRIQNPDPAVYQLRDSKSSDKSVCLFTDFDSQTNVSQSKDSDVYITDKCVLDMRSMDFKSNSAVAWSNKSDFACANAFNNSIIPEDTFFPSPESSCDVKLVEKSFETDTNLNFQNLSVIGFRILLLKVAGFNLLMTLRLWSSRAKRSGSGVKQTLNFDLLKLAGDVESNPGPSRGHMTEYKPTVRLATRDDVPRAVRTLAAAFADYPATRHTVDPDRHIERVTELQELFLTRVGLDIGKVWVADDGAAVAVWTTPESVEAGAVFAEIGPRMAELSGSRLAAQQQMEGLLAPHRPKEPAWFLATVGVSPDHQGKGLGSAVVLPGVEAAERAGVPAFLETSAPRNLPFYERLGFTVTADVEVPEGPRTWCMTRKPGA

Assays:
RAJI cells = experiment: JNG assay, co-culture with RAJI cells; type: cell-based; details: for NFAT-GFP ASSAY: Raji: JNG cells expressing construct, co-culture with Raji
Outline: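 Read-out is NFAT-driven GFP measured by flow cytometry after ~4–18 h co-culture of SAR-expressing JNG cells with target cells (E:T about 1:2). SARs were introduced by lentiviral spinfection and selected with puromycin or blasticidin when possible; scores (+/- to 5+ ≈ 5–50% GFP+) are relative to parental JNG cells.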

LNCaP cells = experiment: JNG assay, co-culture with LNCaP cells; type: cell-based; details: for NFAT-GFP ASSAY: LNCaP: co-culture with LNCaP
Outline: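 Drug-selected populations of SAR-expressing Jurkat-NFAT-GFP cells meet target cells (about 1:2 E:T) for roughly 4–18 h. Flow cytometry gives % GFP+ cells, graded +/- to 5+ (≈5% to ≈50%) relative to the parental control.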

Row | Molecule | NFAT-GFP ASSAY: Raji (RAJI cells) | NFAT-GFP ASSAY: LNCaP with PSMA-USC76-chVH-G4S-ULBP2-S3 (LNCaP cells; LNCaP in presence of SAR adaptor PSMA-USC76-chVH-G4S-ULBP2-S3) | NFAT-GFP ASSAY: LNCaP (LNCaP cells) | GFP induction / activity (RAJI cells; co-culture with RAJI cells) | GFP induction (LNCaP cells; LNCaP cells, only in the presence of SAR-adaptor PSMA-USC76-chVH-G4S-ULBP2-S3 (SEQ ID NO: 23114))
1 | B1 | + (refer to approximately 5%, 10%, 20%, 30%, 40% and 50% GFP positive cells) | + (refer to approximately 5%, 10%, 20%, 30%, 40% and 50% GFP positive cells) | – | – | –
2 | B2 | +/- (refer to approximately 5%, 10%, 20%, 30%, 40% and 50% GFP positive cells) | – | + (refer to approximately 5%, 10%, 20%, 30%, 40% and 50% GFP positive cells) | – | –
3 | B3 | – | – | – | Essentially similar results | Essentially similar results
4 | B4 | +/- (refer to approximately 5%, 10%, 20%, 30%, 40% and 50% GFP positive cells) | – | + (refer to approximately 5%, 10%, 20%, 30%, 40% and 50% GFP positive cells) | – | –
5 | B5 | +/- (refer to approximately 5%, 10%, 20%, 30%, 40% and 50% GFP positive cells) | – | + (refer to approximately 5%, 10%, 20%, 30%, 40% and 50% GFP positive cells) | – | –
6 | B6 | +/- (refer to approximately 5%, 10%, 20%, 30%, 40% and 50% GFP positive cells) | – | + (refer to approximately 5%, 10%, 20%, 30%, 40% and 50% GFP positive cells) | – | –
